Molecular target: AphB C235S-His6 (Vibrio cholerae, UniProt Q9KT56 1-299, C235S)
Assay: EMSA; 0-2 uM protein; affinity similar to wild type; 20 nM DNA, 10 mM Tris-HCl pH 7.5, 1 mM EDTA, 50 mM KCl, 100 ug/ml BSA, 10 ug/ml poly dI-dC, 100 mM DTT when indicated; 20 min at 25 C; 5% PAGE in 0.5X TAE
Settings: protein: recombinant; chain copies: 2; label: 5'-biotin; blunt

Binder | binding result
tcpP promoter probe (dsDNA) DNA 1: GCAATTAAGTTCTCATTATCAACTGCAGAATTAGATTGCAAATAATTATATTAAAAAAAA DNA 2: TTTTTTTTAATATAATTATTTGCAATCTAATTCTGCAGTTGATAATGAGAACTTAATTGC | binds
hmpA promoter probe (dsDNA) DNA 1: CAATAAATTAGGTTTTGGCATGCAATCTGCTCATTAAGAAGGCTTGTGTAGAGTGGCTCA DNA 2: TGAGCCACTCTACACAAGCCTTCTTAATGAGCAGATTGCATGCCAAAACCTAATTTATTG | binds

From paper PMC9246220
